In the supplement of paper PMC9112550, “Optimization of the antimicrobial peptide Bac7 by deep mutational scanning” (BMC Biology, 2022):

What follows are sequences tested on Escherichia coli TOP10 (assay: shrunken log2 fold change of peptide-encoding DNA abundance (4.5 h post-induction vs induction); higher = less antimicrobial activity (less host growth inhibition)). Settings: time post-induction: 4.5 h; library: site-saturation at positions 5, 18, 19, 20.
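Further: peptides expressed intracellularly from a pBAD plasmid library in pooled LB shake-flask culture, induced with 0.3% L-arabinose, DNA abundance read by NGS, three biological replicates, DESeq2 with apeglm shrinkage.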

Sequence | shrunken log2 fold change
RRIRYRPPRLPRPRPRPPFAPRP | 0.0915
RRIRWRPPRLPRPRPRPYCAPRP | -0.281
RRIRLRPPRLPRPRPRPNWGPRP | 0.00356
RRIRKRPPRLPRPRPRPINHPRP | -0.408
RRIRPRPPRLPRPRPRPSYYPRP | -0.721
RRIRCRPPRLPRPRPRPHVMPRP | -0.743
RRIRRRPPRLPRPRPRPCPGPRP | -0.196
RRIRCRPPRLPRPRPRPWDIPRP | -0.179
RRIRLRPPRLPRPRPRPPYHPRP | -0.317
RRIRQRPPRLPRPRPRPGPIPRP | 0.253
RRIRSRPPRLPRPRPRPWWFPRP | 0.0202
RRIRIRPPRLPRPRPRPWNRPRP | 0.000744
RRIRIRPPRLPRPRPRPELFPRP | 0.23
RRIRPRPPRLPRPRPRPHWRPRP | 0.0957
RRIRFRPPRLPRPRPRPKGMPRP | -0.243
RRIRNRPPRLPRPRPRPDPIPRP | -0.143
RRIRLRPPRLPRPRPRPRSYPRP | -0.227
RRIRWRPPRLPRPRPRPIVQPRP | 0.0969
RRIRKRPPRLPRPRPRPSCWPRP | 0.244
RRIRFRPPRLPRPRPRPKTEPRP | 0.0656
RRIRSRPPRLPRPRPRPFMMPRP | -0.643
RRIRQRPPRLPRPRPRPPARPRP | 0.23
RRIRHRPPRLPRPRPRPLVLPRP | -0.0931
RRIRRRPPRLPRPRPRPSLQPRP | 0.334
RRIRTRPPRLPRPRPRPETFPRP | -0.4

Sequence | shrunken log2 fold change
RRIRERPPRLPRPRPRPHPPPRP | 0.16
RRIRYRPPRLPRPRPRPGAWPRP | 0.0731
RRIRNRPPRLPRPRPRPGSIPRP | -0.00285
RRIRHRPPRLPRPRPRPMVKPRP | -0.0243
RRIRFRPPRLPRPRPRPICHPRP | -0.351
RRIRMRPPRLPRPRPRPWVIPRP | 0.0191
RRIRYRPPRLPRPRPRPSNEPRP | -0.474
RRIRARPPRLPRPRPRPVQYPRP | 0.0979
RRIRPRPPRLPRPRPRPHQNPRP | -0.124
RRIRTRPPRLPRPRPRPQTVPRP | -0.216
RRIRERPPRLPRPRPRPHASPRP | -0.346
RRIRQRPPRLPRPRPRPNYFPRP | -0.149
RRIRPRPPRLPRPRPRPQKRPRP | 0.151
RRIRQRPPRLPRPRPRPETAPRP | 0.159
RRIRIRPPRLPRPRPRPNSQPRP | -0.523
RRIRYRPPRLPRPRPRPVHQPRP | -0.0229
RRIRERPPRLPRPRPRPETNPRP | -0.000368
RRIRQRPPRLPRPRPRPSIPPRP | -0.751
RRIRSRPPRLPRPRPRPKFHPRP | -0.441
RRIRTRPPRLPRPRPRPDVRPRP | -0.31
RRIRLRPPRLPRPRPRPQSYPRP | -0.242
RRIRPRPPRLPRPRPRPTRQPRP | 0.221
RRIRHRPPRLPRPRPRPRVPPRP | -0.134
RRIRHRPPRLPRPRPRPFKHPRP | -0.454
RRIRSRPPRLPRPRPRPVVHPRP | -0.126

Sequence | shrunken log2 fold change
RRIRPRPPRLPRPRPRPNCSPRP | -0.132
RRIRVRPPRLPRPRPRPPVHPRP | -0.0509
RRIRERPPRLPRPRPRPKMDPRP | -0.0491
RRIRIRPPRLPRPRPRPNEKPRP | -0.0849
RRIRERPPRLPRPRPRPHQTPRP | -0.0225
RRIRRRPPRLPRPRPRPFKKPRP | -0.0451
RRIRYRPPRLPRPRPRPRLEPRP | -0.0441
RRIRIRPPRLPRPRPRPNKYPRP | -0.932
RRIRDRPPRLPRPRPRPPYKPRP | -0.1
RRIRKRPPRLPRPRPRPMASPRP | 0.55
RRIRGRPPRLPRPRPRPRLKPRP | 0.777
RRIRMRPPRLPRPRPRPCRLPRP | 0.0956
RRIRLRPPRLPRPRPRPFRNPRP | -0.0827
RRIRRRPPRLPRPRPRPDPLPRP | 0.119
RRIRTRPPRLPRPRPRPPYHPRP | -0.541
RRIRGRPPRLPRPRPRPYTLPRP | -0.616
RRIRRRPPRLPRPRPRPRCKPRP | 0.358
RRIRSRPPRLPRPRPRPEYRPRP | 0.2
RRIRERPPRLPRPRPRPYKIPRP | -0.266
RRIRRRPPRLPRPRPRPTPHPRP | 0.884
RRIRARPPRLPRPRPRPEQGPRP | 0.388
RRIRSRPPRLPRPRPRPPKYPRP | -0.164
RRIRVRPPRLPRPRPRPIEQPRP | -0.14
RRIRWRPPRLPRPRPRPWRQPRP | 0.25
RRIRKRPPRLPRPRPRPETSPRP | 1.02

Sequence | shrunken log2 fold change
RRIRIRPPRLPRPRPRPIYFPRP | -0.233
RRIRPRPPRLPRPRPRPHDAPRP | 0.0201
RRIRPRPPRLPRPRPRPDWQPRP | -0.0976
RRIRIRPPRLPRPRPRPFDYPRP | -0.182
RRIRRRPPRLPRPRPRPHAFPRP | -0.103
RRIRFRPPRLPRPRPRPEKWPRP | 0.109
RRIRQRPPRLPRPRPRPYDVPRP | -0.00663
RRIRFRPPRLPRPRPRPPLLPRP | -0.0704
RRIRGRPPRLPRPRPRPDACPRP | 1.23
RRIRARPPRLPRPRPRPKDFPRP | -0.0146
RRIRHRPPRLPRPRPRPFRCPRP | -0.556
RRIRFRPPRLPRPRPRPTTHPRP | -0.0585
RRIRNRPPRLPRPRPRPDFSPRP | -0.0911
RRIRSRPPRLPRPRPRPDIIPRP | -0.16
RRIRQRPPRLPRPRPRPIQVPRP | -0.201
RRIRLRPPRLPRPRPRPWHLPRP | -0.28
RRIRERPPRLPRPRPRPYDTPRP | -0.00822
RRIRIRPPRLPRPRPRPDSDPRP | -0.0273
RRIRARPPRLPRPRPRPPHMPRP | 0.661
RRIRTRPPRLPRPRPRPHDCPRP | -0.00088
RRIRDRPPRLPRPRPRPALRPRP | 0.0869
RRIRQRPPRLPRPRPRPDFNPRP | -0.164
RRIRYRPPRLPRPRPRPYCIPRP | -1.32
RRIRLRPPRLPRPRPRPGKFPRP | 0.117
RRIRVRPPRLPRPRPRPSNLPRP | -0.586

Sequence | shrunken log2 fold change
RRIRERPPRLPRPRPRPSPQPRP | -0.0688
RRIRARPPRLPRPRPRPNAFPRP | 0.424
RRIRERPPRLPRPRPRPSHVPRP | -2.72
RRIRERPPRLPRPRPRPVEYPRP | -0.0437
RRIRDRPPRLPRPRPRPWFMPRP | 0.0254
RRIRYRPPRLPRPRPRPPLKPRP | -0.192
RRIRCRPPRLPRPRPRPDYEPRP | -0.373
RRIRRRPPRLPRPRPRPLPCPRP | -0.0345
RRIRTRPPRLPRPRPRPFDCPRP | -0.748
RRIRKRPPRLPRPRPRPAVEPRP | 0.019
RRIRIRPPRLPRPRPRPDGAPRP | -0.237
RRIRGRPPRLPRPRPRPRSQPRP | 1.13
RRIRWRPPRLPRPRPRPSMSPRP | 0.0258
RRIRQRPPRLPRPRPRPLLIPRP | -0.141
RRIRNRPPRLPRPRPRPLQQPRP | 0.0184
RRIRIRPPRLPRPRPRPWCRPRP | -0.521
RRIRVRPPRLPRPRPRPVVGPRP | 0.126
RRIRVRPPRLPRPRPRPPETPRP | -0.0362
RRIRLRPPRLPRPRPRPHWQPRP | 0.0281
RRIRVRPPRLPRPRPRPYISPRP | -0.0821
RRIRYRPPRLPRPRPRPTVAPRP | 0.0691
RRIRIRPPRLPRPRPRPPKAPRP | -0.0729
RRIRKRPPRLPRPRPRPMCRPRP | 0.625
RRIRKRPPRLPRPRPRPYYKPRP | -0.445
RRIRHRPPRLPRPRPRPQFYPRP | -0.192

Sequence | shrunken log2 fold change
RRIRYRPPRLPRPRPRPCKFPRP | -0.931
RRIRNRPPRLPRPRPRPWYDPRP | -0.0695
RRIRIRPPRLPRPRPRPHWLPRP | -0.49
RRIRSRPPRLPRPRPRPLIDPRP | -0.197
RRIRKRPPRLPRPRPRPPPWPRP | 1.03
RRIRGRPPRLPRPRPRPGGRPRP | 1.09
RRIRFRPPRLPRPRPRPTGPPRP | 0.445
RRIRGRPPRLPRPRPRPCLHPRP | 0.331
RRIRVRPPRLPRPRPRPRVVPRP | 0.2
RRIRHRPPRLPRPRPRPSVQPRP | -0.266
RRIRLRPPRLPRPRPRPRRPPRP | 0.39
RRIRHRPPRLPRPRPRPRGQPRP | -0.0142
RRIRARPPRLPRPRPRPWAHPRP | 0.0535
RRIRTRPPRLPRPRPRPLETPRP | 0.0461
RRIRLRPPRLPRPRPRPVRRPRP | 0.276
RRIRFRPPRLPRPRPRPDMLPRP | -0.125
RRIRFRPPRLPRPRPRPFLPPRP | -0.208
RRIRWRPPRLPRPRPRPNWCPRP | -0.0188
RRIRRRPPRLPRPRPRPLGCPRP | 0.166
RRIRVRPPRLPRPRPRPTCKPRP | -0.0395
RRIRWRPPRLPRPRPRPKQSPRP | 0.698
RRIRIRPPRLPRPRPRPVGDPRP | -0.0246
RRIRDRPPRLPRPRPRPARPPRP | 0.569
RRIRTRPPRLPRPRPRPNWLPRP | 0.295
RRIRTRPPRLPRPRPRPNDAPRP | -0.036
